Source: the supplement of paper PMC7877785
± gives the uncertainty stated by the source.

Assay: self-splicing fitness, log relative to wild type (ln ratio); higher = more splicing; Tetrahymena group I intron in knt gene, E. coli kanamycin selection, DiMSum; sequences stand for … in CUCUCU…GGAGGGAAAAGUUAUCAGGCAUGCACCUGGUAGCUAGUCUUUAAACCAAUAGAUUGCAUCGGUUUAAAAGGCAAGACCGUCAAAUUGCGGGAAAGGGGUCAACAGCCGUUCAGUACCAAGUCUCAGGGGAAACUUUGAGAUGGCCUUGCAAAGGGUAUGGUAAUAAGCUGACGGACAUGGUCCUAACCACGCAGCCAAGUCCUAAGUCAACAGAUCUUCUGUUGAUAUGGAUGCAGUUCACAGACUAAAUGUCGGUCGGGGAAGAUGUAUUCUUCUCAUAAGAUAUAGUCGGACCUCUCCUUAAUGGGAGCUAGCGGAUGAAGUGAUGCAACACUGGAGCCGCUGGGAACUAAUUUGUAUGCGAAAGUAUAUUGAUUAGUUUUGGAGUACUCGUGGUCG
Method in brief: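 DiMSum derived fitness as the error-weighted combination of fold changes across replicates, kanamycin versus no kanamycin, normalised to wild type. E. coli BL21(DE3) held the library, which randomised all eight P1ex-region intron nucleotides within the knt kanamycin-resistance gene on pET-22b(+). Six replicate transformations grew overnight at 37°C or 30°C on LB agar with or without 25 μg/mL kanamycin, also containing 100 μg/mL carbenicillin, 50 μM IPTG and 0.2% rhamnose, and pooled colonies were amplicon-sequenced on an Illumina HiSeq 2500.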

Sequence | self-splicing fitness (ln) (30 °C) | self-splicing fitness (ln) (37 °C)
CGGUAGCAAUAUUACGAGGU | -3.59 ± 0.25 | -2.03 ± 0.25
AAGAAGCAAUAUUACGAACG | -0.96 ± 0.11 | -0.286 ± 0.14
AAGUAGCAAUAUUACGCGAA | -2.76 ± 0.23 | -0.182 ± 0.18
GAUUAGCAAUAUUACGGUCG | -1.28 ± 0.11 | -0.366 ± 0.13
GAGUAGCAAUAUUACGUCAG | -2.86 ± 0.17 | -2.24 ± 0.34
CCCCAGCAAUAUUACGUGUC | -4.78 ± 0.2 | -2.53 ± 0.15
UUCAAGCAAUAUUACGAAUC | -4.05 ± 0.3 | -2.75 ± 0.32
GGGGAGCAAUAUUACGCGUA | -1.53 ± 0.38 | -1.13 ± 0.3
UCUAAGCAAUAUUACGGUGA | -0.587 ± 0.099 | -0.245 ± 0.1
UGCCAGCAAUAUUACGUGUC | -3.01 ± 0.19 | -1.04 ± 0.13
UGACAGCAAUAUUACGGACG | 0.0374 ± 0.078 | 0.415 ± 0.11
ACAGAGCAAUAUUACGUGAU | -2.97 ± 0.1 | -2.08 ± 0.15
AGGCAGCAAUAUUACGUUUG | -3.43 ± 0.18 | -1.66 ± 0.14
GUCCAGCAAUAUUACGGUUU | -0.181 ± 0.052 | 0.389 ± 0.064
ACUAAGCAAUAUUACGAUGG | -0.371 ± 0.1 | -0.661 ± 0.16
CAUUAGCAAUAUUACGCUUG | -2.46 ± 0.2 | -2.6 ± 0.2
UAGUAGCAAUAUUACGGGGU | -3 ± 0.17 | -2.89 ± 0.22
GUUCAGCAAUAUUACGAUGC | -0.236 ± 0.17 | 0.2 ± 0.14
UCAAAGCAAUAUUACGGACU | -3.52 ± 0.3 | -2.27 ± 0.25
AGUGAGCAAUAUUACGACUU | -1.18 ± 0.17 | -0.93 ± 0.19
CAGAAGCAAUAUUACGCUCU | -4.2 ± 0.24 | -2.41 ± 0.17
AAAGAGCAAUAUUACGAUUC | -2.3 ± 0.14 | -1.61 ± 0.14
CUAAAGCAAUAUUACGCUAG | -3.41 ± 0.24 | -1.84 ± 0.13
ACCCAGCAAUAUUACGCAAU | -0.941 ± 0.053 | 0.344 ± 0.064
CUACAGCAAUAUUACGUGGG | -4.01 ± 0.2 | -2.61 ± 0.15

Sequence | self-splicing fitness (ln) (30 °C) | self-splicing fitness (ln) (37 °C)
GUACAGCAAUAUUACGUACG | -4.18 ± 0.31 | -2.2 ± 0.19
CAAUAGCAAUAUUACGGGCU | -3.42 ± 0.16 | -1.4 ± 0.12
CCGUAGCAAUAUUACGACGA | -0.268 ± 0.11 | -0.689 ± 0.1
CACUAGCAAUAUUACGCCAG | -1.1 ± 0.08 | -0.0668 ± 0.11
CAGUAGCAAUAUUACGGUAA | -3.19 ± 0.31 | -1.57 ± 0.22
GAGGAGCAAUAUUACGUCAA | -2.72 ± 0.31 | 
CAGCAGCAAUAUUACGAUCG | -0.0679 ± 0.074 | 0.219 ± 0.094
UGCCAGCAAUAUUACGAAGU | -2.88 ± 0.22 | -2.97 ± 0.23
CUGCAGCAAUAUUACGCAAA | -2.18 ± 0.2 | -3.55 ± 0.24
CAUCAGCAAUAUUACGUUGG | -1.58 ± 0.059 | -0.639 ± 0.067
CCAGAGCAAUAUUACGGUGG | -3.31 ± 0.17 | -3.31 ± 0.24
UCUGAGCAAUAUUACGACUA | -2.49 ± 0.19 | -1.64 ± 0.17
UACUAGCAAUAUUACGUGUU | -3.16 ± 0.15 | -0.975 ± 0.13
GGGCAGCAAUAUUACGCCAG | -2.02 ± 0.1 | -0.684 ± 0.13
UGUCAGCAAUAUUACGACGC | -2.44 ± 0.22 | -1.61 ± 0.22
CUCCAGCAAUAUUACGGACC | -3.65 ± 0.32 | -2.64 ± 0.44
GACCAGCAAUAUUACGGUCA | -1.44 ± 0.099 | -0.935 ± 0.1
UUGUAGCAAUAUUACGGGGG | -2.82 ± 0.41 | 
AAUCAGCAAUAUUACGUUAU | -0.401 ± 0.041 | 0.272 ± 0.062
AGCCAGCAAUAUUACGGGGG | -3.73 ± 0.24 | -1.99 ± 0.21
CGAUAGCAAUAUUACGGUGU | -2.7 ± 0.11 | -1.06 ± 0.095
CGUCAGCAAUAUUACGUUCG | -1.45 ± 0.068 | -0.148 ± 0.096
AUUAAGCAAUAUUACGGUAU | -1.01 ± 0.11 | -1.2 ± 0.14
GACGAGCAAUAUUACGCGCC | -2.74 ± 0.19 | -1.59 ± 0.25
AGACAGCAAUAUUACGGUUG | -1.85 ± 0.088 | -1.87 ± 0.13

Sequence | self-splicing fitness (ln) (30 °C) | self-splicing fitness (ln) (37 °C)
GUCUAGCAAUAUUACGGCAA | -1.61 ± 0.25 | 0.441 ± 0.17
GCCUAGCAAUAUUACGAUGU | -0.317 ± 0.081 | 0.35 ± 0.12
GGCGAGCAAUAUUACGCAGG | -2.43 ± 0.23 | -2.75 ± 0.33
GGGGAGCAAUAUUACGGUAU |  | -2.23 ± 0.39
GCUUAGCAAUAUUACGUCUG | -2.33 ± 0.16 | -1 ± 0.15
GUGAAGCAAUAUUACGCACA | 0.0998 ± 0.15 | 0.512 ± 0.18
CCCCAGCAAUAUUACGAGGC | -3.53 ± 0.26 | -3.1 ± 0.35
GGCGAGCAAUAUUACGUGCC |  | -2.25 ± 0.45
UGGGAGCAAUAUUACGAGAG | -3.13 ± 0.32 | -2.85 ± 0.36
ACCGAGCAAUAUUACGGGUU | -2.85 ± 0.12 | -2.54 ± 0.18
GCUUAGCAAUAUUACGUUGG | -1.59 ± 0.1 | -0.814 ± 0.14
CAAUAGCAAUAUUACGCAUA | -2.99 ± 0.18 | -2.08 ± 0.18
UUCCAGCAAUAUUACGUACU |  | -1.82 ± 0.21
GGAGAGCAAUAUUACGCACG |  | -0.798 ± 0.47
UCCAAGCAAUAUUACGAACG | -2.64 ± 0.15 | -1.62 ± 0.23
UUGGAGCAAUAUUACGGUAG | -3.58 ± 0.2 | -1.99 ± 0.18
AGCUAGCAAUAUUACGAAUU | -1.74 ± 0.11 | -1.14 ± 0.13
UGGUAGCAAUAUUACGGAGU | -2.76 ± 0.27 | 
CGCGAGCAAUAUUACGGCCG | -3.16 ± 0.3 | -1.35 ± 0.29
CAGGAGCAAUAUUACGGGGU | -3.38 ± 0.23 | -2.19 ± 0.24
UACAAGCAAUAUUACGUUCC | -3.65 ± 0.28 | -2.58 ± 0.25
GUGUAGCAAUAUUACGAAAA | -2.71 ± 0.4 | -1.51 ± 0.29
AGCGAGCAAUAUUACGAACU | -2.3 ± 0.42 | -1.17 ± 0.29
GGGAAGCAAUAUUACGUGUG | -1.15 ± 0.097 | -1.24 ± 0.13
UUAAAGCAAUAUUACGUGCC | -0.9 ± 0.11 | -0.509 ± 0.16

Sequence | self-splicing fitness (ln) (30 °C) | self-splicing fitness (ln) (37 °C)
AACUAGCAAUAUUACGUCUU | 0.0966 ± 0.067 | 0.781 ± 0.083
GCAAAGCAAUAUUACGAAAC | -1.75 ± 0.092 | -0.783 ± 0.11
CCCUAGCAAUAUUACGGUUA | -4.05 ± 0.35 | -2.71 ± 0.21
GCCCAGCAAUAUUACGCACG | -3.39 ± 0.2 | 
GAUCAGCAAUAUUACGAGCA | -1.26 ± 0.1 | -0.318 ± 0.1
AUCUAGCAAUAUUACGAGAU | -2.88 ± 0.26 | -2.31 ± 0.34
GGGUAGCAAUAUUACGGCGU | -0.56 ± 0.13 | -0.386 ± 0.12
CACAAGCAAUAUUACGAAAC |  | -1.91 ± 0.25
AAUCAGCAAUAUUACGUCUA | -0.491 ± 0.069 | -0.133 ± 0.076
AACCAGCAAUAUUACGACUA | 0.0905 ± 0.084 | -0.0751 ± 0.079
ACACAGCAAUAUUACGCGCG | -0.558 ± 0.082 | 0.0666 ± 0.091
UUCCAGCAAUAUUACGGUUG | -2.43 ± 0.11 | -1.75 ± 0.16
UUAUAGCAAUAUUACGAUUG | -1.01 ± 0.13 | -0.505 ± 0.2
ACGAAGCAAUAUUACGCAAA | -2.64 ± 0.15 | -0.916 ± 0.13
UCCGAGCAAUAUUACGAGAG | -2.57 ± 0.16 | -2.91 ± 0.21
UAGAAGCAAUAUUACGUCCG | 0.777 ± 0.14 | -0.199 ± 0.16
UAUGAGCAAUAUUACGGUUA | -1.76 ± 0.15 | 0.43 ± 0.12
GACCAGCAAUAUUACGUUUU | -0.363 ± 0.036 | -0.174 ± 0.052
GGCUAGCAAUAUUACGGACC | -1.67 ± 0.14 | -0.619 ± 0.2
CCGAAGCAAUAUUACGUAGA | -3.45 ± 0.17 | -1.06 ± 0.17
AAAUAGCAAUAUUACGGACU | 0.0218 ± 0.068 | 0.206 ± 0.091
AACCAGCAAUAUUACGUUCA | -0.752 ± 0.06 | -0.495 ± 0.065
UCGUAGCAAUAUUACGGGGA | -2.6 ± 0.28 | -1.23 ± 0.23
